These are literature values, as cited in paper PMC6162179.

In series [1] the target is gp5 DNA polymerase (Escherichia phage T7) (UniProt P00581).
Series [2] concerns the target Thioredoxin (Escherichia coli) [thioredoxin: P0AA25].

Chain of gp2.5 (P03696 whole entry): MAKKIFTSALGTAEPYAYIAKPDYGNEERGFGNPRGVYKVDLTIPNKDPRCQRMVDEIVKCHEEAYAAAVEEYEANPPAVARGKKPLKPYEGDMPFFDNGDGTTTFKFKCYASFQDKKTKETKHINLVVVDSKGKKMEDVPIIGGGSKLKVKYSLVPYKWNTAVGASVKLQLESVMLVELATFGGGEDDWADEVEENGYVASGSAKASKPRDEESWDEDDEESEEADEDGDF
Chain of gp5 DNA polymerase (Escherichia phage T7) (P00581 whole entry): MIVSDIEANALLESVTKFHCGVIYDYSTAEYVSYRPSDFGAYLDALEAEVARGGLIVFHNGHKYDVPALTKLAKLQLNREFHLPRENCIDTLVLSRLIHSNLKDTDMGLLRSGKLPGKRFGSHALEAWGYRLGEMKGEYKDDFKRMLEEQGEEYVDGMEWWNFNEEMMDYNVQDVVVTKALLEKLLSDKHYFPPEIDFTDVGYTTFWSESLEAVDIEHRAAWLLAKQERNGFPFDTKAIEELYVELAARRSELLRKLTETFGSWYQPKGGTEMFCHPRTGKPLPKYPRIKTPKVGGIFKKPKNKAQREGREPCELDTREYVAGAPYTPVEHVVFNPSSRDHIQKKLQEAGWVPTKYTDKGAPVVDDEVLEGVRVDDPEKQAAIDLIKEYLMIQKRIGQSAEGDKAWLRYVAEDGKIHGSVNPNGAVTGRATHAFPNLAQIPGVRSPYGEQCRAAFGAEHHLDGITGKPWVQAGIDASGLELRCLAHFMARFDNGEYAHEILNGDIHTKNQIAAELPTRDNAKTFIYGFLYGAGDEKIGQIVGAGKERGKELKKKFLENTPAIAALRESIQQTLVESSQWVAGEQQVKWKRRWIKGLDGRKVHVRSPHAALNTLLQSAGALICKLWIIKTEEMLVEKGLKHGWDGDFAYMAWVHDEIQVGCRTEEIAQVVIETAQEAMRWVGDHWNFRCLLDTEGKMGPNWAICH
Chain of Thioredoxin (Escherichia coli) [thioredoxin: P0AA25] (P0AA25 2-109): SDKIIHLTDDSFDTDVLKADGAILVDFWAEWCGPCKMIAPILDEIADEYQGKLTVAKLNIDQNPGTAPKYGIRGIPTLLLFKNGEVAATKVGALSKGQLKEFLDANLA

Consider gp2.5 (from UniProt P03696), for which the values for the Kd in series [1] and in series [2] were 1 µM and 500 µM, respectively.
